We go through one molecule from patent US8889130B2, “Treatment of osteoarthritis and pain” (Abbvie Inc., priority 2011, dated 2014).

One test relates to male DBA-1 mice. As to the kind of experiment: Collagen-induced arthritis mouse model (rheumatoid arthritis). The test is classed as in vivo. To be noted: therapeutic mode; 1-3 mg/kg intraperitoneally every other day after disease onset. The procedure: The therapeutic effects of anti-IL-1α, anti-IL-1β, combined anti-IL-1α/anti-IL-1β, and murine IL-1α/β DVD4-Ig, were evaluated in a collagen-induced arthritis mouse model well known in the art. Briefly, male DBA-1 mice were immunized with bovine type II collagen in CFA at the base of the tail. The mice were boosted with Zymosan intraperitoneally (i.p) at day 21. After disease onset at day 24-27, mice were selected and divided into separate groups of 10 mice each. […] To neutralize IL-1, mice were injected every other day with 1-3 mg/kg of anti-IL-1α mAb, anti-IL-1βmAb, combination of anti-IL-1α and anti-IL-1β mAbs, or murine IL-1α/β DVD4-Ig intraperitoneally. Mice were carefully examined three times a week for the visual appearance of arthritis in peripheral joints, and scores for disease activity determined.

Another test concerns male Swiss Webster mice. The test is described as follows: Joint instability model (JIM) of osteoarthritis, cartilage degeneration histology. In kind it is in vivo, mouse. The procedure: The design of study of the in vivo activity of a mIL-1α/β DVD-Ig molecule in the joint instability model (JIM) of osteoarthritis in mice is shown in Table 19. All groups contained 25 mice (n=25), weighing approximately 30 grams (BW=30 g). The study was terminated after 21 days. Two and a half month old, male Swiss Webster mice (25/group/time point), housed 5/cage, were anesthetized with isoflurane anesthesia. Anterior cruciate ligament (ACL) trauma was administered on the right and left knees on day 0 in an attempt to induce OA lesions. Intraperitoneal (ip) treatments with IL-1 inhibitory antibodies IL-1α (9H10) and IL-1β (10G11), alone and in combination, were initiated the day of ACL trauma and continued every 4th day (q4d) for 20 days. The vehicle for the non-treatment control was PBS. Right and left knees were harvested on day 21, and histopathologic alterations were scored and characterized. Data were analyzed using only joints that had proliferative responses indicative of successful instability induction. The proliferative response/instability was scored 0-3, and only unstable joints (scores of 1, 2, or 3) were used in the final analysis. Medial and lateral femoral and tibial cartilage degeneration was scored for severity of cartilage degeneration on a scale 0-5. Four days after the last antibody dose, blood was drawn from all animals from each group for serum harvest. Body weights were recorded weekly. […]
Following 2-3 days in a decalcifying fixative (Surgipath Decalifier, Surgipath Medical Ind., Inc., Richmond Va.), both knee joints were trimmed of extraneous tissue, embedded in the frontal plane and sectioned. […] Slides were examined by a board-certified veterinary pathologist blinded to study group designation, and were scored according to the method below. […]
Medial and lateral femoral and tibial cartilage degeneration were scored for severity of cartilage degeneration using the following system: Depth/extent of chondrocyte and proteoglycan loss with fibrillation: […]
The design of this study was similar to that described above in Example 3.3.1. […] Body weights were recorded weekly. […]

For test [1], the system named is zymosan-induced IL-6 production. As to the kind of experiment: Zymosan-induced IL-6 production in joint instability model study. In kind it is in vivo, mouse. The following applies: day 21 of JIM; 50 mg/kg zymosan ip, serum 4 hours later; mAbs 6 mg/kg each; DVD-Ig 6 or 12 mg/kg. The protocol:
As a pharmacodynamic readout to determine if anti-IL-1α and anti-IL-1β monoclonal antibodies as well as mIL-1α/β DVD-Ig binding protein were functional and capable of neutralizing IL-1α and IL-1β in vivo, zymosan-induced (IL-1α and IL-1β dependent) production of interleukin 6 (IL-6) was measured in a joint instability model study of OA.
Briefly, on day 21 in the model, zymosan was suspended in PBS vehicle and placed in boiling water for half an hour, then allowed to cool before using. The mice were then injected ip with 50 mg/kg zymosan in suspension (mixed well before injection) in 0.5 ml PBS. The mice were then bled 4 hours after zymosan injection. Serum was collected for IL-6 measurements.

The test system of another test is Male SV129 mice. As to the kind of experiment: Destabilization of medial meniscus (DMM) model of osteoarthritis, cartilage degeneration (Chambers scores). In kind it is in vivo, mouse. To be noted: for mean sum Chambers scores and mean maximum Chambers scores (cartilage degeneration): Example 3.3.6 (FIG. 7).
Excerpt: (§1) Male SV129 mice weighing approximately 30 grams, housed 5/cage, were anesthetized on Day 0 with ketamine/xylazine cocktail, administered intraperitoneally (ip), and then the medial collateral ligament was exposed by blunt dissection, and transected to reflect the meniscus toward the femur. The joint space was closed with 8-0 vicryl suture. The skin was closed with wound glue. For sham surgeries, a vertical skin incision was made over the medial aspect of the knee and the joint capsule was opened. The capsule was closed with 8-0 vicryl suture and the skin was closed with wound glue. Groups of animals were then treated with intraperitoneal (ip) injections of antibody or vehicle according to the study design table below. Two sex-matched, age-matched, and strain-matched naïve mice were also included in the study. Animals were euthanized after 8 weeks of treatment, and knee joints were harvested in 10% neutral buffered formalin.
Formalin-fixed samples were decalcified, and specimens were sectioned in the frontal plane into 15 step sections each. Each section was approximately 6 μm thick, and step sections were separated by 70 μm. All slides were stained with toluidine blue (T. Blue). Slides were assessed according to the Chambers method (Chambers et al. (2001) Arthritis Rheum 44:1455-65) for cartilage degeneration (see below) by a board-certified veterinary pathologist. Each of the four cartilage surfaces, the medial femoral condyle (MFC), the medial tibial plateau (MTP), the lateral femoral condyle (LFC), and the lateral tibial plateau (LTP), was scored from 0-6 according to the scale in the table below.
as §1, with “8-0 vicryl suture, and the” for “8-0 vicryl suture and the”, “injections of anti-mIL-1α monoclonal antibody, anti-mIL-1β (alone or in combination), mIL-1α/βDVD-Ig binding protein, or vehicle” for “injections of antibody or vehicle”, “design table below (Table 24). Animals were” for “design table below. Two sex-matched, age-matched, and strain-matched naïve mice were also included in the study. Animals were”, “weeks of treatment and knee” for “weeks of treatment, and knee”
Male SV129 mice weighing approximately 30 grams had the medial collateral ligament exposed by blunt dissection, and transected to reflect the meniscus toward the femur. The joint space was closed with 8-0 vicryl suture. The skin was closed with wound glue. For sham surgeries, a vertical skin incision was made over the medial aspect of the knee and the joint capsule was opened. The capsule was closed with 8-0 vicryl suture, and the skin was closed with wound glue. Groups of animals were then treated per os (po) or via intraperitoneal (ip) injections of vehicle or treatments according to the study design table below. Three sex-matched, age-matched, and strain-matched naïve mice were also included in the study. Animals were euthanized after 4 weeks of treatment, and knee joints were harvested in 10% neutral buffered formalin.

B1: mIL-1α/βDVD-Ig: mouse anti-mouse DVD-Ig, V(anti-mIL-1β 10G11)-linker-V(anti-mIL-1α 9H10)-murine constant region (Cγ2a and Cκ) (antibody)
heavy: EVQLQQSGPELVKPGTSVKMSCKTSGYTFTSYVMHWVKQKPGQGLEWIGYIIPYNDNTKYNEKFKGKATLTSDKSSSTAYMELSSLTSEDSAVYYCARRNEYYGSSFFDYWGQGTTLTVSSAKTTAPSVYPLAPQVILKESGPGILQPSQTLSLTCSFSGFSLSTYGTAVNWIRQPSGKGLEWLAQIGSDDRKLYNPFLKSRITLSEDTSNSQVFLKITSVDTEDSATYYCANGVMEYWGLGTSVTVSSAKTTAPSVYPLAPVCGDTTGSSVTLGCLVKGYFPEPVTLTWNSGSLSSGVHTFPAVLQSDLYTLSSSVTVTSSTWPSQSITCNVAHPASSTKVDKKIEPRGPTIKPCPPCKCPAPNLLGGPSVFIFPPKIKDVLMISLSPIVTCVVVDVSEDDPDVQISWFVNNVEVHTAQTQTHREDYNSTLRVVSALPIQHQDWMSGKEFKCKVNNKDLPAPIERTISKPKGSVRAPQVYVLPPPEEEMTKKQVTLTCMVTDFMPEDIYVEWTNNGKTELNYKNTEPVLDSDGSYFMYSKLRVEKKNWVERNSYSCSVVHEGLHNHHTTKSFSRTPGK
light: DIQMTQSPASLSASVGETVTITCRGSGILHNYLVWYQQKQGKSPQLLVYSAKILADGVPSRFSGSGSGTQYSLKINSLQPEDFGSYYCQHFWSTPFTFGSGTKLEIKRADAAPTVSIFPPSIVMTQTPKFLLVSAGDRVTITCKASQSVNHDVAWYQQMPGQSPKLLIYFASNRYTGVPDRFTGSGYGTDFTFTISTVQAEDLAVYFCQQDYSSPYTFGGGTKLEIKRADAAPTVSIFPPSSEQLTSGGASVVCFLNNFYPKDINVKWKIDGSERQNGVLNSWTDQDSKDSTYSMSSTLTLTKDEYERHNSYTCEATHKTSTSPIVKSFNRNEC
With B1, in the test with male DBA-1 mice, the “reduction in mean arthritis score compared to control group” value was found to be 47%. For the same molecule, the cartilage degeneration entry in the test on male Swiss Webster mice (3 mg/kg DVD-Ig binding protein) is “had not effect on cartilage degeneration”. The “progression of osteoarthritis (cartilage degeneration scores, histopathological parameters)” value in the test with male Swiss Webster mice (Example 3.3.2 (FIG. 3), DVD-Ig 6 or 12 mg/kg ip three times weekly, mAbs 6 mg/kg each Q4D, day 21) is listed as “significantly inhibited the progression of osteoarthritis”. Also, the “zymosan-induced IL-6 production” value in test [1] is “significantly neutralized zymosan-induced IL-6 production”. For the same molecule, the “cartilage degeneration (total sum score)” value in the test on Male SV129 mice (Example 3.3.5 (FIG. 6), 8 weeks of treatment ip, 6 mg/kg) was “significantly reduced cartilage degeneration”. Moreover, the “mean sum Chambers scores and mean maximum Chambers scores (cartilage degeneration)” value is “except for IL-1α/β DVD at 1.5 mg/kg” in the test with Male SV129 mice (8 weeks, DVD-Ig at 1.5 mg/kg (excepted from the significant reduction)); “significantly reduced” in the test with Male SV129 mice (8 weeks, DVD-Ig at 3 and 6 mg/kg). For the same molecule, the “dose effect for mean sum Chambers scores” value in the test on Male SV129 mice (Example 3.3.6, 8 weeks, DVD-Ig 1.5, 3, 6 mg/kg) is given as “statistically significant dose effect”.
